The experiment deals with N-terminally His6-tagged human IDO1 (indoleamine 2,3-dioxygenase 1), purified apo-IDO1 (human) (UniProt P14902).
N-terminally His6-tagged human IDO1 (indoleamine 2,3-dioxygenase 1), purified apo-IDO1 (human), sequence (P14902 whole entry): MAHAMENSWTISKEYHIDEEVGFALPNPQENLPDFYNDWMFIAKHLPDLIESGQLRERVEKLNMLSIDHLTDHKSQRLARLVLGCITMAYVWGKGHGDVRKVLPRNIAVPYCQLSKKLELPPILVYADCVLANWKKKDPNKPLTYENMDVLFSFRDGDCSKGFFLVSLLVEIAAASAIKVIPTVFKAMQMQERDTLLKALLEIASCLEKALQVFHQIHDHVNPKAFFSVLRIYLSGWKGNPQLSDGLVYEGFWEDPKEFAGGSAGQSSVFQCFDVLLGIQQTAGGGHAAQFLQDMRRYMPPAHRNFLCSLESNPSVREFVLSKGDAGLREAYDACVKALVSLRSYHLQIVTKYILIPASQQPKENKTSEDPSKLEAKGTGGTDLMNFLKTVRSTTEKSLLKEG

Substance “human recombinant TC-GAPDH (GAPDH with a tetra-Cys insertion sequence near its heme binding site), wild type, purified (from UniProt P04406 1-335) (enzyme)” registered an IDO1 catalytic activity after the heme transfer reaction with the TC-GAPDH-heme complex of 2 fold; a decrease in heme content of TC-GAPDH (UV-vis) after 30 min at 37 °C with apo-IDO1 and separation by gel filtration of 50%.

The record behind these values is publication PMC12329532.
